The values below come from IntAct's records for PubMed 14597414.

B1: Prelamin-A/C (Homo sapiens), P02545 (parent)
chain: METPSQRRATRSGAQASSTPLSPTRITRLQEKEDLQELNDRLAVYIDRVRSLETENAGLRLRITESEEVVSREVSGIKAAYEAELGDARKTLDSVAKERARLQLELSKVREEFKELKARNTKKEGDLIAAQARLKDLEALLNSKEAALSTALSEKRTLEGELHDLRGQVAKLEAALGEAKKQLQDEMLRRVDAENRLQTMKEELDFQKNIYSEELRETKRRHETRLVEIDNGKQREFESRLADALQELRAQHEDQVEQYKKELEKTYSAKLDNARQSAERNSNLVGAAHEELQQSRIRIDSLSAQLSQLQKQLAAKEAKLRDLEDSLARERDTSRRLLAEKEREMAEMRARMQQQLDEYQELLDIKLALDMEIHAYRKLLEGEEERLRLSPSPTSQRSRGRASSHSSQTQGGGSVTKKRKLESTESRSSFSQHARTSGRVAVEEVDEEGKFVRLRNKSNEDQSMGNWQIKRQNGDDPLLTYRFPPKFTLKAGQVVTIWAAGAGATHSPPTDLVWKAQNTWGCGNSLRTALINSTGEEVAMRKLVRSVTVVEDDEDEDGDDLLHHHHGSHCSSSGDPAEYNLRSRTVLCGTCGQPADKASASGSGAQVGGPISSGSSASSVTVTRSYRSVGGSGGGSFGDNLVTRSYLLGNSSPRTQSPQNCSIM
partner: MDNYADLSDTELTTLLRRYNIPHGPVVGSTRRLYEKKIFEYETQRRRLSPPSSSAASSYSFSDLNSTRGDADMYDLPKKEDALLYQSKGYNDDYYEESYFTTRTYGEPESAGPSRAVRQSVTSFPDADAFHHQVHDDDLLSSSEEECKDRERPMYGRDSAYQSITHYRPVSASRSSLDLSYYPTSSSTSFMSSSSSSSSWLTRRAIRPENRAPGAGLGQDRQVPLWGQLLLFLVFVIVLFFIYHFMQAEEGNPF

This test covers variants of B1. Conditions: with emd_human EMD.
As for R482L, the “effect of a mutation on the interaction” value is “decreasing interaction strength”.
